Measurements: publication PMC9879077
Read-outs that look alike come from different tables or passages of the source.

B1: Oligo incl mutant TRE (dsDNA)
DNA 1: TGTGACAATGTGACAGCTGTCACATTGTCACA
DNA 2: GGTGTGACAATGTGACAGCTGTCACATTGTCACA
B2: Oligo incl TRE (dsDNA)
DNA 1: TGAGTCAATGAGTCAGCTGACTCATTGACTCA
DNA 2: GGTGAGTCAATGAGTCAGCTGACTCATTGACTCA

Assays:
c-Fos;c-Jun [1] = molecular target: T1, c-Fos;c-Jun (mouse (cDNA from ST2 cells);mouse (cDNA …, UniProt P01101;P05627 1-380;1-334, |)); test: EMSA
c-Fos;c-Jun [2] = molecular target: T1, c-Fos;c-Jun; test: EMSA; remark: listed apart in the source

T1 sequence (P01101 whole entry, chain 1 of 2): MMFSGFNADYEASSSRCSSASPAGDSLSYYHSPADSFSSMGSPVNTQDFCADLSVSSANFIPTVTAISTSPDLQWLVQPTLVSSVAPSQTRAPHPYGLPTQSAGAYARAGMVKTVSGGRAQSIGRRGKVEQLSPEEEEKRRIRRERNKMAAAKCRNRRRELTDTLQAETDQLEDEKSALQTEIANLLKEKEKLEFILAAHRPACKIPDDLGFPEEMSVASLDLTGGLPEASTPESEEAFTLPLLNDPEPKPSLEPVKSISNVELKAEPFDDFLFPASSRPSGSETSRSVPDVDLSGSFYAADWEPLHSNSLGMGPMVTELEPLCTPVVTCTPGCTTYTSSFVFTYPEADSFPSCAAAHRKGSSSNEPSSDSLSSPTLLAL
T1 sequence (P05627 whole entry, chain 2 of 2): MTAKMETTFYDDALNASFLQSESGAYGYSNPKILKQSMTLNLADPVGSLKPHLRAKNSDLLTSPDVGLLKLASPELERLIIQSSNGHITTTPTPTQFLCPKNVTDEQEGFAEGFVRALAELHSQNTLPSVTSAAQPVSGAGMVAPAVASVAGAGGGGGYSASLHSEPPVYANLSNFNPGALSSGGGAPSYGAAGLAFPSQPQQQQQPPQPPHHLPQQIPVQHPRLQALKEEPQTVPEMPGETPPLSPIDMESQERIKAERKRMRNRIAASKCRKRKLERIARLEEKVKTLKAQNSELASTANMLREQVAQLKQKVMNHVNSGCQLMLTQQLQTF

Binder	binding result (c-Fos;c-Jun [1])	binding result (c-Fos;c-Jun [2])
B1	no binding	
B2		binds
